From patent US20240052029A1 (BIOHENG THERAPEUTICS, published 2024)
Substitutions are numbered along the chain they refer to.

B1: 6V8 anti-ROR1 humanized scFv, as chimeric antigen receptor on CAR-T cells (scFv)
scFv: ETTLTQSPATLSVSPGEKVIIRCITSTDIDEDMNWYQQKPGQPPKLLISEGNTLRPGVPSRFSGSGSGTDFTLTISSLQPEDVATYYCLQSNNMPLTFGAGTKLELKGGGGSGGGGSGGGGSQVQLQESGPGLVKPSQTLSLTCTVTAYSITSDYAWNWIRQFPGNKLEWMGYISYSGFTRYNPSLKSRISITRDTSKNQFFLKLNFVTTEDTATYYCARGEITYYFDYWGQGTTLTVSSESKYGPPCPPCPIYIWAPLAGTCGVLLLSLVITLYCKRGRKKLLYIFKQPFMRPVQTTQEEDGCSCRFPEEEEGGCELRVKFSRSADAPAYQQGQNQLYNELNLGRREEYDVLDKRRGRDPEMGGKPRRKNPQEGLYNELQKDKMAEAYSEIGMKGERRRGKGHDGLYQGLSTATKDTYDALHMQALPPR
notes: Humanized from murine ROR1-4
B2: 6V12 anti-ROR1 humanized scFv, as chimeric antigen receptor on CAR-T cells (scFv)
scFv: B1 scFv with G64S
notes: Humanized from murine ROR1-4
B3: 6V10 anti-ROR1 humanized scFv, as chimeric antigen receptor on CAR-T cells (scFv)
scFv: B1 scFv with K18R, V19A
notes: Humanized from murine ROR1-4
B4: 6V11 anti-ROR1 humanized scFv, as chimeric antigen receptor on CAR-T cells (scFv)
scFv: B1 scFv with K18R, V19A, T147S, M171I, F201Y, F202Y, K204Q, F207S
notes: Humanized from murine ROR1-4
B5: 6V13 anti-ROR1 humanized scFv, as chimeric antigen receptor on CAR-T cells (scFv)
scFv: B1 scFv with G64S, T147S, M171I, F201Y, F202Y, K204Q, F207S
notes: Humanized from murine ROR1-4
B6: 6V9 anti-ROR1 humanized scFv, as chimeric antigen receptor on CAR-T cells (scFv)
scFv: B1 scFv with T147S, M171I, F201Y, F202Y, K204Q, F207S
notes: Humanized from murine ROR1-4

Molecular target: T1, ROR1-hFc (Acrobio brand, Cat. No. R01-H5250) protein (UniProt Q01973 30-403)
T1 construct: Bought reagent; not shown: hFc (human Fc, detected with anti-human IgG Fc)
T1 sequence (Q01973 30-403): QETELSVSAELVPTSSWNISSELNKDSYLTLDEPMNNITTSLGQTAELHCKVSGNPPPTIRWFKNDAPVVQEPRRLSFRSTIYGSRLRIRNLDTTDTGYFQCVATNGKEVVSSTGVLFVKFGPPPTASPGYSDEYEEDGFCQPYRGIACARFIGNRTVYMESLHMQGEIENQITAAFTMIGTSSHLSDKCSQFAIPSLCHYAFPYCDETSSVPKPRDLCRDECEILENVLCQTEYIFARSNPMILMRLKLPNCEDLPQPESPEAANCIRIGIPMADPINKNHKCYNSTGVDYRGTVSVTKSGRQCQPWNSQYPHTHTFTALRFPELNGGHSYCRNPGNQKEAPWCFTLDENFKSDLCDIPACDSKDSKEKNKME
Assay: flow cytometry: CAR-T cells stained with ROR1-hFc, then PE anti-human IgG Fc
Method: After culturing at 37° C. and 5% CO₂ for 11 days, the above CAR-T cells, ROR1-4 CAR-T-2 cells (replacing the CD8α hinge region in the ROR1-4 CAR-T cells with the IgG4 hinge region) and Wild-type T cells (NT, used as negative control) were incubated with ROR1-hFc (Acrobio brand, Cat. No. R01-H5250) protein for 45 minutes, and after washing, PE anti-human IgG Fc Antibody (Biolegend brand, Cat. No. 410708) was added to incubate for 30 minutes. The expression level of the anti-ROR1 single chain antibody on the CAR-T cells was detected by flow cytometry, and the results are shown in FIG. 4.

binding result	Binder
binds	B1
binds	B2
binds	B3
binds	B4
binds	B5
binds	B6
